Columns and labels:
[1] = target: Fluorescein-labeled FimDN (E. coli); assay: stopped-flow fluorescence kinetics; fluorescein-labeled FimDN (0.4 μM) mixed with different concentrations of FimCI; 23 °C, 20 mM Tris-HCl pH 8.0; traces fitted globally to second-order binding and first-order dissociation
[2] = target: T1, FimA-FimAt (the two subunits of the ternary FimCAA complex) (E. coli) (UniProt P04128); assay: chaperone exchange kinetics followed by analytical cation exchange chromatography; 4 μM complex incubated with a 9-fold molar excess (36 μM) of the differently tagged FimC (untagged FimC against FimCHis complexes, FimCHis against FimCA and FimCAA); 20 mM MES-NaOH pH 6.0, 37 °C; single-exponential fit
T1 sequence (P04128 24-182, looked up): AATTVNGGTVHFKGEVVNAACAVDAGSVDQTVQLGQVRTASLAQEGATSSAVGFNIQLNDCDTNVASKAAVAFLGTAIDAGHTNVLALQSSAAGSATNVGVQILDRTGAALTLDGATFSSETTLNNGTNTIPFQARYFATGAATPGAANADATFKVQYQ

Chain of Fluorescein-labeled FimDN (E. coli) (P30130 46-170 limits assumed): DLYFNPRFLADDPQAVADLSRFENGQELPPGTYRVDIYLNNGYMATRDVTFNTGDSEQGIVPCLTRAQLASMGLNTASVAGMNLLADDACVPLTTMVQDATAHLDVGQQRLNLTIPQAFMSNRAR
Chain of FimC-FimI complex (FimCI) (P31697 37-241): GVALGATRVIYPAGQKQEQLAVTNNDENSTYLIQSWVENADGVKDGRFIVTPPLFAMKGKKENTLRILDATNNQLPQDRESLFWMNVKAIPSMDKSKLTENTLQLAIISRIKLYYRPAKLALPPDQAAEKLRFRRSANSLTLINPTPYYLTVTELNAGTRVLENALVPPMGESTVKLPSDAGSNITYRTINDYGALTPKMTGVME
Chain of FimC-FimI complex (FimCI) (P39264 20-179): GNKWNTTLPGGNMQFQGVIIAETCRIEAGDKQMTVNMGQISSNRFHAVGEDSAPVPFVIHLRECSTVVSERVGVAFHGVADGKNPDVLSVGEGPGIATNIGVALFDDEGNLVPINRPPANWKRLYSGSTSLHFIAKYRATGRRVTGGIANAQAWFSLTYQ
Chain of FimC (P31697 37-241): as the sequence (P31697 37-241) above

Row | koff [1] [s⁻¹] | kon [1] [M⁻¹ s⁻¹] | dissociation half-life [2] [min] | Substance
1 | 94 | 1.45e+08 | – | FimC-FimI complex (FimCI) (from UniProt P31697 37-241; P39264 20-179)
2 | – | – | 17.7 | FimC (from UniProt P31697 37-241) (natural protein)

Source: article PMC10673952
